Laboratory results reported in paper PMC2045701, “Confocal fluorescence resonance energy transfer microscopy study of protein-protein interactions of lens crystallins in living cells” (Molecular Vision, 2007).

Molecular target: GFP-αA-crystallin (UniProt P02489 2-173)
Test: cell-based or functional assay

GFP-αA-crystallin, sequence (P02489 2-173): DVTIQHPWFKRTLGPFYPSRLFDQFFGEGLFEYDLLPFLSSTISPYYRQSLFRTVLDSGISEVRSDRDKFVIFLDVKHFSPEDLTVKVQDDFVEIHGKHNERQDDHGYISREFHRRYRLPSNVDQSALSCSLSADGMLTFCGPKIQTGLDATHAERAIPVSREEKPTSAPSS

percentage of HeLa cells with protein aggregates, cotransfection of GFP-αA- and RED-αB-crystallin against RED-αB-crystallin alone (confocal microscopy): > 4 fold
B1: RED-αB-crystallin (natural protein, UniProt P02511 2-175, looked up)
chain: DIAIHHPWIRRPFFPFHSPSRLFDQFFGEHLLESDLFPTSTSLSPFYLRPPSFLRAPSWFDTGLSEMRLEKDRFSVNLDVKHFSPEELKVKVLGDVIEVHGKHEERQDEHGFISREFHRKYRIPADVDPLTITSSLSSDGVLTVNGPRKQVSGPERTIPITREEKPAVTAAPKK
